Data published in patent publication US6680170B2, “Polynucleotides encoding STE20-related protein kinases and methods of use” (Sugen, Inc., priority 1998, dated 2004).
Where no end group is shown, it is not given here.

Key:
[1] = molecular target: T1, PAK5 (Homo sapiens, UniProt O96013); test: In vitro kinase assay, activation loop peptides as PAK5 substrates; format: biochemical; details: for substrate: peptide substrates at 2.5 μM
T1 construct: made in house; host or cells: 293 cells (transient transfection, immunopurified on protein A sepharose) or bacteria (GST fusion)
Method: (§1) Three days after transfection with the STE20-related kinase expression contructs, a 10 cm plate of 293 cells was washed with PBS and solubilized on ice with 2 mL PBSTDS containing phosphatase inhibitors (10 mM NaHPO4, pH 7.25, 150 mM NaCl, 1% Triton X-100, 0.5% deoxycholate, 0.1% SDS, 0.2% sodium azide, 1 mM NaF, 1 mM EGTA, 4 mM sodium orthovanadate, 1% aprotinin, 5 μg/mL leupeptin). Cell debris was removed by centrifugation (12000× g, 15 min, 4° C.) and the lysate was precleared by two successive incubations with 50 μL of a 1:1 slurry of protein A sepharose for 1 hour each. One-half mL of the cleared supernatant was reacted with 10 μL of protein A purified kinase-specific antisera (generated from the GST fusion protein or antipeptide antisera) plus 50 μL of a 1:1 slurry of protein A-sepharose for 2 hr at 4° C. The beads were then washed 2 times in PBSTDS, and 2 times in HNTG (20 mM HEPES, pH 7.5/150 mM NaCl, 0,1% Triton X-100, 10% glycerol).
(§2) The immunopurified kinases on sepharose beads were resuspended in 20 μL HNTG plus 30 mM MgCl2, 10 mM MnCl2, and 20 μCi […] (3000 Ci/mmol). The kinase reactions were run for 30 min at room temperature, and stopped by addition of HNTG supplemented with 50 mM EDTA. The samples were washed 6 times in HNTG, boiled 5 min in SDS sample buffer and analyzed by 6% SDS-PAGE followed by autoradiography. Phosphoamino acid analysis was performed by standard 2D methods on ^32P-labeled bands excised from the SDS-PAGE gel.
Similar assays were performed on bacterially expressed GST-fusion constructs of the kinases.
20 mM Hepes pH 7.2, 130 mM KCl, 10 mM MgCl2, 1 mM NaF, 20 mM B-glycerolphosphate, 0.5 mM DTT, 50 μM ATP, 0.5 μCi ^32PyATP.
Substrates: MBP at 0.28 mg/mL and peptide substrates derived from PAK5 activation loop at 2.5 μM.
To aid in the development of in vitro kinase assays for screening small molecule libraries to identify specific inhibitors, the search for specific peptide substrates for PAK5 was undertaken.
The rationale used to design such peptides is based on the hypothesis that upon binding activated small G protein, PAK5 undergoes a conformational change that results in derepression of its kinase activity followed by autophosphorylation on the activation loop resulting in a fully active kinase. The site of autophosphorylation for related family members has been identified by biochemical and/or genetic means (e.g. Wu, C, et al. J.Biol.Chem 270:15984-15992 and Szczepanowska, et al. Proc.Natl.Acad.Sci 94, 8503-8508, 1997). Specific peptide substrates for PAKS were designed from the sequence of the activation loop of this kinase.

[2] = molecular target: T2, PAK4 (Homo sapiens, UniProt Q9NQU5); test: In vitro kinase assay, activation loop peptide as PAK4 substrate; format: biochemical
T2 construct: made in house; host or cells: 293 cells (transient transfection, immunopurified) or bacteria (GST fusion)
Method: as §1
as §2, with “Phosphoamino acid analysis was performed by standard 2D methods on ^32P-labeled bands excised from the SDS-PAGE gel.” left out

T1 sequence (O96013 whole entry, the tested form may be a part): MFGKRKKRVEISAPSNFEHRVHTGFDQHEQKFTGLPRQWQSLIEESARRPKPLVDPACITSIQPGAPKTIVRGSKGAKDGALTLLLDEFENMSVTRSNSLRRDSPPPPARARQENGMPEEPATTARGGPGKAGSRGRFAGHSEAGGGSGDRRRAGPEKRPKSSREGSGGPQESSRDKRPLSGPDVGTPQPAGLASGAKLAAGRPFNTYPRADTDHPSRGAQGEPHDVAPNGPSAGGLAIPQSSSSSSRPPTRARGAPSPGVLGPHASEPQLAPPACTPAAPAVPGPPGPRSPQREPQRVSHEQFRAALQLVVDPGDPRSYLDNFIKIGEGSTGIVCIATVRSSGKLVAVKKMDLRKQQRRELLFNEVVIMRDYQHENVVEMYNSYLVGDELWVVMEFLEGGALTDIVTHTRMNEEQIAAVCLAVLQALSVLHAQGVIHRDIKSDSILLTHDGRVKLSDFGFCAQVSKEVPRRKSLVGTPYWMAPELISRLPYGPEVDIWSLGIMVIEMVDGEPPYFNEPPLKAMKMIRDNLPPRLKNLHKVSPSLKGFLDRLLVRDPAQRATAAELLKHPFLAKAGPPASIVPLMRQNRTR
T2 sequence (Q9NQU5 whole entry, the tested form may be a part): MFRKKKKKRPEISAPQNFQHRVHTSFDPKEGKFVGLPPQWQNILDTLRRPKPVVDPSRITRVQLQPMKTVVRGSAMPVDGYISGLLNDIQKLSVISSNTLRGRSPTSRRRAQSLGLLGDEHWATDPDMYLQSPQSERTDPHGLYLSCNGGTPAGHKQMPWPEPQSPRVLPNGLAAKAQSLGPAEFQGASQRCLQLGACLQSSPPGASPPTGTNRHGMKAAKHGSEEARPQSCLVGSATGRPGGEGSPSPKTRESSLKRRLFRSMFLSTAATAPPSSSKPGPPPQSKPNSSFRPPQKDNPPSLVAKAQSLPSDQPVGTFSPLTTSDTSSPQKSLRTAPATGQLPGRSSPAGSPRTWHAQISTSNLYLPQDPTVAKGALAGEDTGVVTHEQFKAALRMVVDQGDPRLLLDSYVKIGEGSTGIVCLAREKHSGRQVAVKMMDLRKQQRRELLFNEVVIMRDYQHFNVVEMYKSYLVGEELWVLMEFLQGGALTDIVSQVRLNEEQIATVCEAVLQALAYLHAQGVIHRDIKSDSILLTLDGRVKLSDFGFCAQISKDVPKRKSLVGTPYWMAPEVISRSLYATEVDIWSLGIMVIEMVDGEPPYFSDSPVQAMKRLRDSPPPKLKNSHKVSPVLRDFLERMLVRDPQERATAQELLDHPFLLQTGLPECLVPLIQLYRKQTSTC

Row | Substance | Notes: substrate quality relative to MBP or other peptides [1] | substrate [1] | other results
1 | KRKSFIGTPYWMAPE [Peptide 4] | Similiar to peptide 1 | yes | –
2 | PANSFVGTPYWMAPE [Peptide 6] | – | poor | –
3 | (C) RRKSLVGTPYWMAPE [2] (CRRKSLVGTPYWMAPE; also: phosphorylated residue) [Peptide 2, phosphorylated residue marking not visible] | – | yes | Km ([1]; Notes column): 1 to 10 µM
4 | RRNTFIGTPYWMAPE [Peptide 7] | – | poor | –
5 | (C) RRKSLVGTPYWMAPE (CRRKSLVGTPYWMAPE; N-terminal cysteine) [Peptide 10] | – | – | Notes: Km for PAK4 compared with PAK5 [2]: Same Km as phosph. by PAK5; substrate [2]: yes
6 | KRNTFVGTPFWMAPE [Peptide 5] | – | poor | –
7 | (C) RRKSLVGTPYWMAPE [1] (CRRKSLVGTPYWMAPE; N-terminal cysteine) [Peptide 1] | Equally well as MBB | yes | –
8 | RNKVRKTFVGTPCWMAPE [Peptide 9] | – | poor | –
9 | (C) RRKSLVGTPYWMAPE [3] (CRRKSLVGTPYWMAPE; also: phosphorylated residue) [Peptide 3, phosphorylated residue marking not visible] | – | no | –
10 | RRNTFIGTPYWMAPE (also: phosphorylated residue) [Peptide 8, phosphorylated residue marking not visible] | Better than 7 | – | –
